Results on one protein are retold here after paper PMC3595323 (Proteins, 2013).

This series deals with the molecule itself. Briefly: crystal structure.

B1: Thermoplasma acidophilum nucleoside kinase Ta0880, crystallization construct (E112A, K113A, K115A) (enzyme, UniProt Q9HJT3 1-287, looked up)
chain: MRFLAYFGHLNIDVLISVDSIPREGSVNVKDLRPRFGGTAGNFAIVAQKFRIPFDLYSAVGMKTHREYLAMIESMGINTGHVEKFEDESGPICYIATDGKKQVSFMHQGAMAAWAPQLADEYEYVHFSTGPNYLDMAKSIRSKIIFDPSQEIHKYSKDELKKFHEISYMSIFNDHEYRVFREMTGLSSPKVTTIVTNGERGSSLFMDGKKYDFPAIPSSGDTVGAGDSFRAGLYLALYNRRSIEKGMIYGTIIAHHVIDDGIENFSLNMEDLERETENYRRMFTKRS
modifications: selenomethionine (expressed in selenomethionine-containing medium with suppression of normal methionine synthesis)
B1: the binding result is “binds”.
